The results in this text go back to patent publication US20070099822A1, “Regulation of tissue mineralization and phosphate metabolism by asarm peptides” (priority 2003, published 2007).

Entries after “also recorded” stand apart in the source; their conditions may differ.

For assay [1], the target named is T1, MEPE-PHEX interaction (Homo sapiens, UniProt P78562).
T1 construct: to generate a soluble, secreted form of PHEX; made in house; host or cells: secPHEX: mammalian cells (gift, University of Montreal); MEPE: S. frugiperda insect cells
T1 sequence (P78562 46-749 limits assumed): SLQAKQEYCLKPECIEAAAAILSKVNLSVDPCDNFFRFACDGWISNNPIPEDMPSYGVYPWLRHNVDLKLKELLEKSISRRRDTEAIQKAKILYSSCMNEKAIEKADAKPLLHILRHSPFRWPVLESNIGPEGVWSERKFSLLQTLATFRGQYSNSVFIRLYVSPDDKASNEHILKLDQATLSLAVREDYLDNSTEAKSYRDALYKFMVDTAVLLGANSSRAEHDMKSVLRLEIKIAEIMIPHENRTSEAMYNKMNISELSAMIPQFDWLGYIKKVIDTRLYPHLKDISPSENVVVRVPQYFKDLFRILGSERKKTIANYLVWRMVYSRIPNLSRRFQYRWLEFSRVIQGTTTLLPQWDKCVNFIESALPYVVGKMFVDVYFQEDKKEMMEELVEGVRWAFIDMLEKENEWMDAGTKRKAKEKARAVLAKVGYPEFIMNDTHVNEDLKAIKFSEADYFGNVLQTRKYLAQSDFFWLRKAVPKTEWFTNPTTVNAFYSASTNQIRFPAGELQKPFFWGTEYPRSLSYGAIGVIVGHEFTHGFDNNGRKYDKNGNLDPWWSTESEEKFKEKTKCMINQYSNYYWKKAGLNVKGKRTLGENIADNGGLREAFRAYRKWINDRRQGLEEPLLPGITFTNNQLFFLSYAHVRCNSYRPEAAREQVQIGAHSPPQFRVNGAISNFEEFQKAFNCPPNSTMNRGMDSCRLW
Nature of the assay: Surface plasmon resonance, peptide solution competition of secPHEX-MEPE binding. From the text: Surface Plasmon Resonance: Synthetic peptides & competitive PHEX-MEPE binding studies. For these experiments CM-5 chips containing flow-cells immobilized with MEPE, PHEX and IgG ligands at 6000 RU were used. Just prior to SPR injection, stock solution of specific-peptide (as defined for each experiment; see Table 1), and dissolved in analyte buffer (HBS-P—Zn) […] The following equation was used to compute KDapp values: RU=Bmax/inhib×(peptide(μM))/KDapp+(peptide(μM)). The Bmax/inh value represents the maximal percentage inhibition change in RU (i.e., PHEX-MEPE binding) relative to the “non-peptide” control (0% inhibition of binding), using a constant analyte flow-solution of secPHEX of 250 nM against immobilized MEPE ligand at 6000 RU. […] The control MEPE-RGD peptide had no effect on MEPE-PHEX interactions.
For orientation: In SPR one partner is held on a chip, and binding of the other changes the refractive index at the surface.

In assay [2] the test system is Na+ dependent phosphate co-transport in human renal proximal tubule cell-line (Hu-CL8). Nature of the assay: 33PO4 uptake scintillation proximity assay (SPA) in Hu-CL8. Type of assay: cell-based. On the procedure: Measurement of ^33PO4 uptake and ^14C-α-methyl D-glucose uptake. A novel technique, scintillation proximity assay (SPA), was used to measure ^33PO4 uptake in-vitro. Human renal proximal-tubule primary cells (RPTEC) were purchased from Clonetics-Biowhittaker (Walkersville, Md.) (cat. no. CC2553) and were cultured and subcultured using the manufacturers recommended protocols, methods, buffers and media (cat. nos. CC3190, CC5034). Also a human renal cell-line (Hu-CL8) was cultured as previously described (Rowe et al. Candidate 56 and 58 kDa protein(s) responsible for mediating the renal defects in oncogenic hypophosphatemic osteomalacia. Bone 18(2):159-169, 1996). For ^33PO4-uptake measurement cells were grown in REBM media supplemented with 5% fetal calf serum (REBM-FCS) to 80% confluence (Clonetics-Biowhitaker, Walkersville, Md.: cat. nos. CC2553, CC3190 and CC5034) and seeded into 96 well (3000 cells/well) cytostar-T scintillating-microplates (Amersham-Pharmacia Biotech, Piscataway, N.J.: cat. no. RPNQ 0162). Cells were then cultured in 200 μL of REBM-FCS media for 24 h. Media was then replaced with serum free media (REBM) and the cells incubated for a further 3-4 h with Hu-MEPE, PTH (1-34) or media control respectively in REBM media. The concentrations of PTH (1-34) and Hu-MEPE were […] and each experimental dose was repeated eight times for statistical analysis. Following incubation media was removed and replaced with either phosphate uptake buffer (PUB) consisting of 150 mM NaCl/1 mM Cacl2/1.8 mM MgSO4/10 mM HEPE pH 7.0/0.1 mM phosphate buffer pH 7.0 and 3 uCi mL^−1 33P as orthophosphoric acid (18 MBq/mL or 5775.7 Gbq/mg stock solution Perkin Elmer, Wellesley, Mass.: cat. no. NEZ080). In order to determine the Na-dependent phosphate co-transporter activity a separate set of control cells were incubated with the same buffer but with choline chloride (150 mM) substituted for NaCl (CHUB buffer). […] Due to the unique design of the 96 well cytostar-plate radioactive decay in solution is not detected by the counter. In contrast, radioisotope attached to or taken into the cells initiates release of plastic-scintillant photons that are detected by the top-counter photo-multiplier tube. Thus, no washes are required and direct CPM can be counted in living cells. […] Conversion of a tetrazolium salt to a colored formazan product by living cells was then measured at 490 nm using a 96 well multi-well spectrophotometer with KC-4 software (absorbance at 490 nm is directly proportional to the number of living cells). Na-dependent ^33P uptake was then calculated by subtracting background counts and the choline chloride non Na-dependent ^33P uptake and results expressed as ^33PO4 femtomoles/10^4-cells/6 min. […]
Background: In a scintillation proximity assay essentially only radioactivity close to the scintillant gives light.

On to “H-CFSSRRRDDSSESSDSGSSSESDGD-OH [ASARM-peptide]”, for which the Kd in assay [1] (250 nM secPHEX, MEPE 6000 RU, read-out: apparent KDapp, solution competition of MEPE-PHEX binding) was approximately 35 µM. In addition, the “inhibition of MEPE-PHEX interaction” value in assay [1] (peptide pre-mixed with secPHEX, MEPE-RGD up to 85 μM) is listed as “able to inhibit; also recorded: dramatic dose-dependent inhibition”.

B1: Hu-MEPE: purified insect expressed full-length recombinant human MEPE (Matrix Extracellular Phosphoglycoprotein) (protein)
chain: PTFQPQTEKTKQSCVEEQRQEEKNKDNIGFHHLGKRINQELSSKENIVQERKKDLSLSEASENKGSSKSQNYFTNRQRLNKEYSISNKENTHNGLRMSIYPKSTGNKGFEDGDDAISKLHDQEEYGAALIRNNMQHIMGPVTAIKLLGEENKENTPRNVLNIIPASMNYAKAHSKDKKKPQRDSQAQKSPVKSKSTHRIQHNIDYLKHLSKVKKIPSDFEGSGYTDLQERGDNDISPFSGDGQPFKDIPGKGEATGPDLEGKDIQTGFAGPSEAESTHLDTKKPGYNEIPEREENGGNTIGTRDETAKEADAVDVSLVEGSNDIMGSTNFKELPGREGNRVDAGSQNAHQGKVEFHYPPAPSKEKRKEGSSDAAESTNYNEIPKNGKGSTRKGVDHSNRNQATLNEKQRFPSKGKSQGLPIPSRGLDNEIKNEMDSFNGPSHENIITHGRKYHYVPHRQNNSTRNKGMPQGKGSWGRQPHSNRRFSSRRRDDSSESSDSGSSSESDGD
With B1, in assay [2] (Hu-CL8), the “Vmax of percentage inhibition of 33PO4-uptake” value came out at 9.1% and the “inhibition of Na+ dependent phosphate co-transport” value was “dose-dependent in-vitro inhibition”. Also, the “Km of inhibition of 33PO4-uptake” value in assay [2] (Hu-CL8, lineweaver-burke plot) was found to be 23.8 ng/mL.
